A protein production outcome set (Wang et al. 2014)
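Further: failed if final PepcDB status was selected cloned or expressed and not failed if soluble or beyond.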

Assay: label from the status in PepcDB records
For “MRYKRRFVTVYRDFPEGCGVPSKPISNADESFMQSKFNKDGIVLQAHEDFSKITKESSNHSETENSRTEDLLDEGSVLDSNGSVTDCQEDREREMSSVKKRCLSSHNLTSEVETERIGIVLGLAAKAKCPWRQPKIRGSRQVNDLN”, the protein production was “failed”. For “MRYSPRKQCYFALFFFAFVALCVGVIELLHQNQQDLQQERVQVEAKEQLSILRSNLEAVLMADIYKASTLATLITLLPNSEEEELSIAADRILNKSKHITVIGIAENDVISHIFPTQGNERVLGLDYRKVPAQWVQVQKAKDIQEIFIAGPVSLVQGGRGLIVRVPVFRDPPINKEYWGVISAVVDFDGLMRETGVFDFSYHYPLTIRGYDSGGEYGDMFFGDPNQTGKLYAKEHVHFPYGGWSMAAYAGGQLEQQISWFELNIVRIIGYPILIALSIALIVIYRLYIIADDRALHDELTHLPNRRYFMQSYKQQFEIAKRYKKRYSFALINIDLDRFKHINDTFGHDAGDKVLIATAERIKSSLRRSDMVARMGGDEFLVVVHNLGMEEHVQKLLQKLRLALCSTPVIYDEELIYLRVSIGYAIFDPQMTSPEQMMKIADERMYQQKHGGLEHHHHHH”, the protein production was “not failed”. For “MRYVLALFFYRVFLLLLTPIVLLVLLIRSFNHPEYRQRLFERLGFFPKPYKQGGIVVHAASVGEVIALKSFIEKLLVNYPDLPITITSFTPTGSAQITKLFGRRVQHGYLPLDIFPCTTLFLHRLKPKMIIFMETELWPNLIAQCDQHQIKLLLINGRLSKKSLTSYQKLSALMAPCLNRFDMILTQSQENLTHFLQLGAHQSRCVNSGNLKFDISVNEQVINKKAELAKLLFADDSQAKRTVWLVASTHEGDEAITLTAFKELLSQYPSLLLVLVPRHPERFEQVANLCLTKQLSLAKRSENTIINNEQVWLLDSLGELMAAFALSDIVTMGGSFSEVGGHNPLEPALFNKPVIVGHNMSNFNEIMQQLRQENAIIELTNNTPTNESSAQLVNEVSALLQQPTRQKTLGENALKVVLKNQGASEKTLAQVVNLLPTRVNITSTTPLGDNS”, the protein production was “failed”. With “MRYVLYVPDISCNHCKMRISKALEELGVKNYEVSVEEKKVVVETENLDSVLKKLEEIDYPVESYQEV” the protein production was “not failed”. With “MSAEPRLHTLRVARTARVATLGTPATAGSWWVVLHGYGQLAADFVSAFHPLVAPDRCVVAPEGLSRFYVDGMAQHEQVGASWMTREAREAEVSDYVDALDATVRHLADDTPPSLHVLGFSQGAVTASRWALWGDTAVDRLVLWGGAPAHDLDLAEHAASLRALDLTLVAGTEDPYVTDDRWAAIRRRLQAHDIPVTTRTFEGGHRIDPAPLRALVAPA” the protein production was “failed”. For “MSAIDSQLPSSSGQDRPTDEVDRILSPGKLIILGLQHVLVMYAGAVAVPLMIGDRLGLSKEAIAMLISSDLFCCGIVTLLQCIGIGRFMGIRLPVIMSVTFAAVTPMIAIGMNPDIGLLGIFGATIAAGFITTLLAPLIGRLMPLFPPLVTGVVITSIGLSIIQVGIDWAAGGKGNPQYGNPVYLGISFAVLIFILLITRYAKGFMSNVAVLLGIVFGFLLSWMMNEVNLSGLHDASWFAIVTPMSFGMPIFDPVSILTMTAVLIIVFIESMGMFLALGEIVGRKLSSHDIIRGLRVDGVGTMIGGTFNSFPHTSFSQNVGLVSVTRVHSRWVCISSGIILILFGMVPKMAVLVASIPQFVLGGAGLVMFGMVLATGIRILSRCNYTTNRYNLYIVAISLGVGMTPTLSHDFFSKLPAVLQPLLHSGIMLATLSAVVLNVFFNGYQHHADLVKESVSDKDLKVRTVRMWLLMRKLKKNEHGE”, the protein production was “failed”. With “MSAIPENANVTVLNKNEKKARELIGKLGLKQIPGIIRVTFRKKDNQIYAIEKPEVFRSAGGNYVVFGEAKVDNFTQKLAAAQQQAQASGIMPSNEDVATKSPEDIQADMQAAAEGSVNAAAEEDDEEGEVDAGDLNKDDIELVVQQTNVSKNQAIKALKAHNGDLVNAIMSLSK” the protein production was “failed”. For “MSAIQNGTDEVRVIDTGAPPTRFARGWHCLGLASEFSDGKPHQISAFGTELVVFAGEDGKLNVLNAFCPHMGGNLADGTVKGDTIACPFHDWRWRGDGKCADIPYARRVPPLARTKSWLTLERNGQLFVWNDPQNRKPPAEVTIPEISVFGDEGWTDWVWNKLEVRGSHCREIVDNVVDMAHFFYVHYGMPTYFKNVFEGHVATQVMRSKPRADAVDVKLGTNYDTESASDASYFGPSYMIDKLWTEGDDSGEPNIMLINCHYPISADSFMLQYGVMVKKPEGVPDAVANGIAAQVAAGVAIGFEQDVEIWKKKSSIDNPLLSEEDGPVYQLRRWYEQFYVDVEDINPEMTNRFEFEIDTDRALKNWQVEVDANLAAGRSAIPSPVS”, the protein production was “not failed”. With “MSAKTNAEVVIDGKVYTLSGYENEEYLQKVAAYINNKIAEFDDMDEYKHLPGNMKSTLIELNIADDYFKAKALVEKLEGDIENKDKEIYDLKHDLISNQVKTENAEASMKELEAQNKELLLNKARLEATLEESLLDGKKPVKKSAHASKGANDSSDK” the protein production was “failed”. With “MSALVSMNGNNGSTATSARIAAKKPISILVLGVDQGLEGRNDKGNSDTIILVTVNPTTKKATMTSIPRDTLTEILGETSNTSYYMFKVNSAYQFGGSSGSIKTVSAMLNVPINYYVEVNMKALESLVNALGGVDVNVPFSFSYDWCDFKKGKQHLDGRYAIAYARMRYDDPRGDYGRQLRQRQIIQAVVKKGLSVNGLANYQKLLKVFAKYVKTNLTFGDMTSLAINYRSAASNISSGYIQGHDATISGTSLQIASTEELQKWSNKLRKSLGLSPQTLTNQETRQNSLNETYNGVDFSSNETITNYTIYEANSITPRSSDSWLEHHHHHH” the protein production was “not failed”. For “MSAMGAGPDHLFNLRNNFYLGAYQTAINNSEIANLSPENAVERDCLVFRSYIALGSYQLVISEIDESAATPLQAVKLLAMYLSTPQNKESTISSLKEWLADSTIGNNDTLRLIAGIIFMHEEDYNETLKHTHAGGTMDLYALNVQIFIKMHRAEYAEKQLRVMQQIDEDHTLTQLASAWLNLAVGGSKIQEAYLIFEDFSEKYPMTCLILNGKAVCCMQMGNFDEAETLLLEALNKDAKDPETLANLVVCSLHVGKSSSRHLSQLKLSHPEHILVKRVSSAEDNFERAVQLVA”, the protein production was “failed”. For “MSANLKPGSQVNTDQKPEKTKVLILGGTGEMGQWFTRFFKQKGYEVTVWGKGGKTEIASKLGVPFASDLEKAVPESDILIVSVPINVTEETIAEFAPKMKSGSLLMDFTSIKVKPVEAMKKFAPSDVEILGTHPMFGPTIPTIRGQTVILVPVKGRSEKWFPVIRELFEEGGAHVEITTAAEHDRLVSVVQGLTHFAYITIGTTIDRLDFDIKKSRKFVSPVYAIMLDFVGRILGQNPYLYALIQMENPGVLEVHDAFIRECEELSRLVRAHDEESFVKKMKSAARKYGDTAHALRKSDKLINSRITEYETILNSVGKVCGFSHFYSGKIHVGILGKAGPDEIVLTKMVSKGTSPHIKNKFVKLKLENLRMLSESELWEWRKENLEHSTRDISVLIPEGADPEVILNAINTNKQLAACEISDIYKGVNQGDHKRINRGDYKEFNRIETEKEREEAKRLGVTYRITVFGDCDANSVEADVTSLLCGLGCRIREKNLKQIEKTEPKR”, the protein production was “failed”. In the case of “MSANSHFHSTHESHYQCAVCSSIDANPNSLAVNYQCLADSSVVGEFHVLPRHQGYTDLLHGGIASSLLDGAMTHCLLFRDIQALTAQLDVRYHAPIELDEHVTITAHCEGERRGIYQLVAQLLVNNEVRVTAKGKFIRPKEA”, the protein production is reported as “failed”. With “MSAPCCGCGKTLDVAAMHARQRRVLWWVLAINAGSFALMLAGALHSGAASLLSGSLDNLGDALTYALSLAVVGASMAAKARVALLKAGLILLAALAVAAEIGWKLAHPQVPLFQSMGLVAAANFLANLVCLRLLWPYRDGDINLASAWACSRNDVYEGVAVLAASGAVWALGSGWPDLLIAVGLLVVFLRSAWQVARRAWAELGTAG” the protein production was “failed”. For “MSAPLVYHHTPPALLPLYGKALLPKSGKNHPEAVQIPRLEASLLGVTTDIPALRDYMKVCNFQPGTRLPVTWPHILAFPLHLKLLTEPAFPLPLLGLVHLRNSITQHRPLAAGENLDLKVILDNQKRTDRGLEFDLVTEARASGRLIWEEVSTNLFRITNGPGKTSPKPKPELETYPFSEAIKAPENLGRQYAKVSGDRNPIHMHALSARAFGFPRAIAHGMWSKARALALLENQKGWKDGPVRASCQFKKPLLLPGNAMLNWQTGKDGWDFQLLNAKGDAPHLTGRIDWL”, the protein production was “failed”. For “MSASLPRTSATALSSTSPLSARDAAPPKRPRFLRGGVAFSLSPNRDNGLVTFRLDTIGTGLVFADSLSNLTAALATQGGGGAAVVQAPPGTGKTTLVPPLLANLVSEQSPGRPRVVVTQPRRVAARSAARRLASLDGSQLGRRVGYTVRGESKVSQDTVVEFVTPGILLRRLLADPGLEDVSAVVLDEVHERGLETDLLVGMLAEVRELRGDITVVAMSATLDAARFATLLGTGLDGGDPAPVVDCPSALYPLKVQWVPAREHRLDARGVSRLFLDHVAHTAATTHAAALAPDADVDALVFLPGAREVSDVATRLRGLVSGNVEVLELHGQIGPEAQDRAVSGREPGGLPRIIVSTSLAESSLTVPGVRVVIDSGLSREPRRDAGRGMSGLVTVSCSRASADQRAGRAARQGPGTVVRCYDQQAYAAAPAHQTPEISVADLTSAALVLACWGAPGGVDLKLPDAPPAAAMNDAVEVLRELGAVTAEGTVTAVGKTLARIPADPRLARALLDGSAVAGRRAAAETVALVAGGQRAPGADLNKLLSALRSGSDPGARRFAEDVQRMETLVRKEAAAVVRPKAAADVTAGEATGLVVALAFPDRVARRVPGDGSTTYLLSSGTRAGLPSGSSLSGHDWLAVAEVSRAQGRDAAGTGAVIRSAATLSAELAEAAAPDLLTEKVEAKFDQGRVMARLERRLGAIVLSSTPVRPTAESGRRAVSEALEKTGLSMIGWSPAADALRRRLALLHRELGSPWPDVREAALLSRLEDWLGPELEAVATGAAVSSINLVDPLRRLLPWPDAARLEDLVPERLEVPSGSRVRIDYPEVSDRSSGDHDDGRPVVAVKLQECFGWDSTPRLLAGRVPVLFHLLSPAGRPLAVTDDLASFWSGPYSQVRAEMRGRYPRHPWPEDPWTAQATAKTKNRM”, the protein production was “failed”. In the case of “MSATVPSTASSRAPATTGFRSFLPLIGAVVIWGGNWPVMKMGLAHISPLWFAACRFGSAALISFLVLGALRRLRLPSRQEWPLVIGVGLLQMGAFTALALWALQYVPPGRASVIAYATAIWVIPLSSLVLGERPSRLQWLATAFSYAGIAVIVAPALGGWELHTVMGLTMLLGASLAWSVSIIQLRANRAIRLGADMIPWECAVATVPLIALAWLRDGAPDLGAMVDIWPVIAYTGPLATALTFIVVLNVTQSLPPAATSIAMLGVPVIGLVLSTVAWHEQISLDLSIGLALIGMGVVTTALAPRLGRLAAR”, the protein production is reported as “failed”. With “MSAVTYTFLGPQGTFTEAALMQVPGAADATRIPCTNVNTALERVRAGEADAAMVPIENSVEGGVTATLDAIATGQELRIIREALVPITFVLVARPGVELSDIKRISTHGHAWAQCRLWVDEHLPNADYVPGSSTAASAMGLLEDDAPYEAAICAPLIAAEQPGLNVLAEDIGDNPDAVTRFILVSRPGALPERTGADKTTVVVPLPEDHPGALMEILDQFASRGVNLSRIESRPTGQYLGHYFFSIDADGHATDSRVADALAGLHRISPATRFLGSYARADKQPAVVAPHTSDAAFASAHAWVDSILKGS” the protein production was “not failed”. With “MSCCIANAIRWDVSLLIHRSMSSSMSSVQPTSPVSDSPSLGEMHASVAVSRRGHWGFRLLAFLGPGYMVSVGYMDPGNWATGLAGGSRFGYMLLSVILLSNVMAIVLQALAARLGIASDMDLAQACRARYSRGTNLALWAVCELAIIACDLAEVIGTAIALNLLLGVPIILGAVITAVDVVLVLLLMHRGFRALEAFVIALLLVIFGCFVVQIVLAAPPLQEVLGGFVPRWQVVADPQALYLAIGIVGATVMPHNLYLHSSIVQTRAYPRTPVGRRSALRWAVADSTLALMLALFINASILILAAAVFHAQHHFDVEEIEQAYQLLAPVLGVGVAATLFATALLASGINSTVTATLAGQIVMEGFLRLRLRPWLRRVLTRGLAIVPVIVVVALYGEQGTGRLLLLSQVILSMQLPFAVIPLLRCVADRKVMGALVAPRWLMVVAWLIAGVIVVLNVKLLGDYAVHLMVGVSD” the protein production was “failed”.
